From the supplement of paper PMC10567573

B1: KRT15 (parent)
chain: FGGGSTRGGSLLAGGGGFGGGSLS
B2: IQUB (parent)
chain: CRNCINLQNEAQKRESFLKYKCLL

Variants of: B1
Assay: protein stability index of a GFP-peptide fusion (GPS, HEK-293T) (PSI 1-6); higher = more stable
Conditions: c terminus: a fixed tail appended
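Further: lentivirally expressed fusions sorted by FACS into six bins by GFP to DsRed ratio, PSI derived from sequencing read proportions per bin multiplied by bin number.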

Protein stability index of substitutions, site by site:
G3: H 1.51 | I 3.22 | F 1.7 | R 2.26 | L 2.42 | W 1.29 | Y 2.2 | N 1.93 | A 1.79 | D 1.32 | M 2.74 | Q 2.17
L11: Y 1.97 | I 1.56 | A 2.83 | M 1.6 | R 2.08 | N 2.78 | F 1
T6: K 1.66 | M 1.33 | V 1.23 | F 2.52 | H 1.48 | E 1.62
L12: Q 2.67 | M 2.58 | C 1.7 | R 3.6 | P 3.24 | E 2.72 | Y 1.52 | G 3.23 | I 2.75 | D 3.38 | N 3.01
F18: H 3
G9: Q 3.25 | N 2.35 | S 1.05 | D 2.73 | V 1.84
S10: R 1.4 | K 1.28 | Q 1.89 | I 1.79 | W 4.19 | P 2.12
G2: W 2.54 | F 2.47 | K 3.23 | N 2.94 | Q 2 | S 1.75 | M 2.15 | R 2.79 | P 1.96
G8: D 1.57 | S 1.62 | T 1.8 | F 3.67 | I 1.58 | E 1.64 | R 2.5
S5: A 1.57 | F 2.1 | P 1.53 | Q 2.55
G14: S 2.43 | I 1.85 | P 2.17 | R 2.42 | N 2.94
G4: W 2.61 | F 1.77 | H 2.22 | Q 2.17 | C 1.37 | E 2.55 | K 2.15 | P 2.94 | S 1.68 | I 2.59 | M 1.89 | L 2.04 | R 1.58
F1: I 2.53 | Y 2.25 | K 4.35 | M 2.08 | S 3.46
R7: P 3.05 | N 1.7 | K 2.32 | D 1.54
A13: H 2.53 | R 2.67 | I 1.46 | V 1.94 | M 2.13 | C 1.94 | D 3.4 | L 2.1
G16: D 1.84 | K 2.14 | Q 2.4 | T 1.09 | E 1.55 | V 1.28 | M 2.16 | Y 1.9 | R 1.56
G17: C 1.03 | S 1.64 | E 2.74 | V 1.23 | H 1.63 | K 1.41 | N 1.41 | M 1.07 | T 3.32
G15: V 1.34 | R 2.08 | H 3.02 | A 1.9 | K 3.17 | C 1.56

Variants of: B2
Assay: as above
Conditions: c terminus: a fixed tail appended

Protein stability index: each site, then its substitutions
Y20: P 1.89 | S 1.5 | T 2.14 | C 3.65 | L 2.14 | K 2.46 | A 2.34 | D 2.11 | H 1.69 | Q 2.96 | G 3.06 | F 1.66 | R 1.83 | E 2.17 | W 2.46 | M 2.66 | N 2.96
S16: V 2.4 | N 1.84 | L 1.99 | Q 2.06 | D 2.11 | C 1.53 | T 1.59 | E 2.15 | K 1.88 | F 2.23 | A 2.05 | R 2.62 | W 1.69 | P 2.2 | G 2.93 | I 1.59 | H 2.25
R14: H 1.83 | W 1.86 | F 2.34 | M 1.39 | Y 2.43 | D 2.66 | K 2.02 | I 2.86 | C 1.64 | A 1.02 | V 2.36 | N 2.26 | T 1.84 | Q 1.89 | P 2.35 | G 1.67 | S 2.56 | E 1.36
C22: R 1.3 | M 1.79 | I 2.13 | N 1.49 | K 1.87 | A 1.58 | H 2.18 | V 1.73 | G 1.42 | Q 2.33 | Y 1.84 | S 1.65 | D 2.46 | P 2.25 | T 1.41 | W 2.01 | L 1.76 | E 2.69
L18: H 2.23 | D 1.63 | W 1.96 | G 2.9 | I 1.51 | M 2.72 | C 2.6 | V 1.88 | R 1.65 | Q 1.85 | N 2.27 | Y 1.38 | T 1.88 | K 2.15 | A 1.57 | E 2.25 | P 2.11 | S 1.39 | F 2.79
L23: D 2.7 | A 1.5 | W 2.21 | M 1.77 | S 2.18 | T 1.97 | Q 1.87 | E 1.75 | V 3.23 | G 2.03 | R 2.17 | Y 2.05 | C 2.98 | N 2.12 | I 2.25 | F 2.53 | H 1.6 | P 2.69
E15: A 2.85 | D 2.13 | L 2.77 | Q 2.01 | S 2.3 | C 1.47 | F 2.57 | G 2.37 | N 2.51 | R 1.08 | W 1.62 | K 1.92 | P 2.05 | Y 2.04 | T 2.24 | M 3.62 | H 2.75
F17: G 2.84 | Y 1.59 | M 1.58 | L 1.77 | A 2.02 | N 2.22 | K 2.33 | E 2.6 | T 2.74 | S 2.08 | H 1.68 | V 2.25 | I 1.79 | R 2.65 | Q 1.5 | D 2.45 | W 1.58 | C 2.13 | P 2.33
K19: D 1.3 | C 3.27 | H 1.68 | Q 1.85 | A 1.46 | P 1.46 | M 2.28 | G 2.2 | I 2.19 | E 1.74 | F 2.54 | L 2.69 | N 1.63 | R 1.56 | W 1.01 | T 2.23
L24: V 1.27 | G 1.37 | M 1.79 | E 1.65 | Q 1.74 | F 1.82 | I 1.75 | Y 1.69 | C 3.57 | S 3.46 | H 2.19 | K 2.53 | W 1.46 | R 1.82 | P 2.22 | D 2.81 | A 2.56 | N 1.86 | T 1.8
K13: L 2.79 | R 1.74 | T 2.04 | P 2.02 | N 1.85 | Y 1.73 | V 1.78 | M 1.8 | W 2.06 | Q 1.75
K21: W 1.78 | F 1.74 | V 3.66 | I 2.28 | H 2.47 | D 2.06 | E 1.75 | G 2.7 | A 1.16 | C 1.77 | M 1.76 | T 1.58 | Q 2.28 | N 1.47 | R 2.53 | S 1.94 | P 1.74 | L 1.38 | Y 1.51
